# Test: soluble on expression in E. coli; label from the status in PepcDB or PDB records
row,Sequence,soluble on expression in E. coli
1,MGHHHHHHSHMEVVDPQQLGMFTEGELMSVGMDTFIHRIDSTEVIYQPRRKRAKLIGKYLMGDLLGEGSYGKVKEVLDSETLCRRAVKILKKKKLRRIPNGEANVKKEIQLLRRLRHKNVIQLVDVLYNEEKQKMYMVMEYCVCGMQEMLDSVPEKRFPVCQAHGYFCQLIDGLEYLHSQGIVHKDIKPG,not soluble
2,MGHHHHHHSHMEYSCGTAAIRGTKELGEGQHFWEIKMTSPVYGTLTFFKNRKCIGVAATKLQNKRFYPMVCSTAARSSMKVTRSCASATSLQYLCCHRLRQLRPDSGDTLEGLPLPPGLKQVLHNKLGWVLSMSCSRRKAPVSDPQAATSAHPSSREPRPCQRKRCRRT,not soluble
3,MGHHHHHHSHMFMREIELKGHIIDSFILAKVFDRTLELGGDYKVLEFDIGKKKIDTSYAKLLISGDTQQHLDQILEELQNVGANIPEIENANLKPALKDSVLPDGFYSTTNHPTHVKVNDEWIEVANPKMDAVIVVYPEEKRAETKVIRKVKKGDFVLIGHNGIRVMPPEKSREAGQLFEFMNSEVSSEKPKEAIIKRIAKEMHEIREEYKKTGTGGIAIVGGPAIIHTGGGPALAKMVELGYIQAILAGNALATHDIESALYGTSLGVNIKTAKPVTGGHKHHIYAINAINDAGNIKNAVESGVLKEGIMYQCIKNNIPYVLAGSIRDDGPIPDVITDSMVAQDKMRTTVMDKKMVIMLSTLLHSVATGNLMPSYIKTVCVDIQPSTVTKLMDRGTSQAIGVVTDVGVFLVLLLKELERLELQE,soluble
4,MGHHHHHHSHMGARMTRAFRNFNVEKRAEQEISKRKPSMAPKHPSTRSLLQEHLSQYPEIEEEVSRKDNKLLSLLRDVYVNSKDPVPSLPVKAIEPQQQPKEFRLPIGDQFDKNIKDIPKGKITVVEALTLLNNHKLSPETWTAEKIAQEYHLELEDVNSLLKYFVTFEVKIVPPEDRKAIQSK,not soluble
5,MGHHHHHHSHMGDPEYLATFRIVVMPIAREFSPDLVLVSAGFDAAEGHPAPLGGYHVSAKCFGYMTQQLMNLAGGAVVLALEGGHDLTAICDASEACVAALLGNRVDPLSEEGWKQKPNLNAIRSLEAVIRVHSKYWGCMQRLASCPDSWVPRVPGADKEEVEAVTALASLSVGILAEDRPSEQLVEEEEPMNL,not soluble
6,MGHHHHHHSHMGKGPNLLALQLSDSTLADIIARLQAGQKLSGSSPFSSAFNSLSLDKESGLLMFKGDKKPRVWVVPTQLRRDLIFSVHDIPLGAHQRPEETYKKLRLLGWWPGMQEHVKDYCRSCLFCIPRNLIGSELKVIESPASVLRGQGVCNRSGTR,not soluble
7,MGHHHHHHSHMIFLSTLFWYNKLMNKSTFSLNDTAWVDFYQLQNPRQNENYTFPAIIICPGGGYQHISQRESDPLALAFLAQGYQVLLLNYTVMNKGTNYNFLSQNLEEVQAVFSLIHQNHKEWQINPEQVFLLGCSAGGHLAAWYGNSEQIHRPKGVILCYPVTSFTFGWPSDLSHFNFEIENISEYNISEKVTSSTPPTFIWHTADDEGVPIYNSLKYCDRLSKHQVPFEAHFFESGPHGVSLANRTTAPSDAYCLPSVHRWVSWASDWLERQIKN,soluble
8,MGHHHHHHSHMINVDPPTGNYPATGGNSTHNITSESDSRLAFKVKSSNNEHYRVRPVYGFVDAKGKSKLDINRLPGPPKEDKIVIQYAEVPAEETDPMAPFKAGAQQGEIIVKLIAA,soluble
9,MGHHHHHHSHMKATSVIDDFLGGYFCILGLLQPHLERVAIDALQLCCLLLPPPNRRKLQLLMRMISRMSQNVDMPKLHDAMGTRSLMIHTFSRCVLCCAEEVDLDELLAGRLVSFLMDHHQEILQVPSYLQTAVEKHLDYLKKGHIENPGDGLFAPLPTYSYCKQISAQEFDEQKVSTSQAAIAELLENIIKNRSLPLKEKRKKLKQFQKEYPLIYQKRFPTTESEAALFGDKPTIKQPMLILRKPKFRSLR,not soluble
10,MGHHHHHHSHMKNMEQQHIEVVGKLGSTYGIRGWLRIYSSTEQAESIFDYQPWFLKIKGEWQSIELENWRYHNHEIIVKLKGVDDREAAQILANVEIGVDLSVFPELEEGDYYWHDLIGCTVVNLEGYTMGTVTEMMETGSNDVLVVKANTKDAFGKQERLIPFLYEQVVKRVDLTTKTIEVDWDAGF,soluble
11,MGHHHHHHSHMLFIKFIHLEVFSMPERAIARHEVREIEQRHTMDGPRQDATLDEEEDMVIIYNRVPKTASTSFTNIAYDLCAKNKYHVLHINTTKNNPVMSLQDQVRFVKNITSWKEMKPGFYHGHVSYLDFAKFGVKKKPIYINVIRDPIERLVSYYYFLRFGDDYRPGLRRRKQGDKKTFDECVAEGGSDCAPEKLWLQIPFFCGHSSECWNVGSRWAMDQAKYNLINEYFLVGVTEELEDFIMLLEAALPRFFRGATELYRTAPDTATPSHRHGPICGSKSISSLLVKVSPVCKDSHCLGKCSRNGLSAV,not soluble
12,MGHHHHHHSHMLSHFETNSALLEQLSELQGSTEPFLTEHPHMAAEHTVNWLTIAALSSAIDKNEEKLAALSEKCVVFQLFLASATGQKQFFKKFEVSENLDEVKAFKSRMRSRAQAKGEKPEKINLNQGTVDSRQFLEELKQLENLKKVRFIGKFVRKLILIVKFKFYE,not soluble
13,MGHHHHHHSHMNSAEQTVTWLITLGVLESPKKTISDPEGFLQASLKDGVVLCRLLERLLPGTIEKVYPEPRSESECLSNIREFLRGCGASLRLELLFPPSQPPQHLVTTILLSASTFDANDLYQGQNFNKVLSSLVTLNKVTADIGLGSDSVCARPSSHRIKSFDSLGSQSLHTR,soluble
14,MGHHHHHHSHMPDNHKDPPDFNNLEMKLEERIELSREDQDIQSTSSSYPHCEALDHIVSMESTYDFHRQMAHKDLQKHRQEYEKASEKILELRKKLTDWNMDPKKRKWIEDDLDSLVRKQESALSRIRLAEKCTKRDLRNDPPPAYQPDDPLKDLRKNFEKKEKPTWNDVEKKKNGVFEFH,not soluble
15,MGHHHHHHSHMQPAKEVTKASDGSLLGDLGHTPLSKKEGIKWQRPRLSRQALMRCCLVKWILSSTAPQGSDSSDSELELSTVRHQPEGLDQLQAQTKFTKKELQSLYRGFKNECPTGLVDEDTFKLIYAQFFPQGDATTYAHFLFNAFDADGNGAIHFEDFVVGLSILLRGTVHEKLKWAFNLYDINKDGYITKEEMLAIMKSIYDMMGRHTYPILREDAPAEHVERFFEKMDRNQDGVVTIEEFLEACQKDENIMSSMQLFENVI,not soluble
16,MGHHHHHHSHMQSCESSGDSADDPLSRGLRRRGQPRVVVIGAGLAGLAAAKALLEQGFTDVTVLEASSHIGGRVQSVKLGHATFELGATWIHGSHGNPIYHLAEANGLLEETTDGERSVGRISLYSKNGVACYLTNHGRRIPKDVVEEFSDLYNEVYNLTQEFFRHDKPVNAESQNSVGVFTREEVRNRIRNDPDDPEATKRLKLAMIQQYLKVESCESSSHSMDEVSLSAFGEWTEIPGAHHIIPSGFMRVVELLAEGIPAHVIQLGKPVRCIHWDQASARPRGPEIEPRGEGDHNHDTGEGGQGGEEPRGGRWDEDEQWSVVVECEDCELIPADHVIVTVSLGVLKRQYTSFFRPGLPTEKVAAIHRLGIGTTDKIFLEFEEPFWGPECNSLQFVWEDEAESHTLTYPPELWYRKICGFDVLYPPERYGHVLSGWICGEEALVMEKCDDEAVAEICTEMLRQFTGNPNIPKPRRILRSAWGSNPYFRGSYSYTQVGSSGADVEKLAKPLPYTESSKTAPMQVLFSGEATHRKYYSTTHGALLSGQREAARLIEMYRDLFQQGT,soluble
17,MGHHHHHHSHMRSVSYVQRVALEFSGSLFPHAICLGDVDNDTLNELVVGDTSGKVSVYKNDDSRPWLTCSCQGMLTCVGVGDVCNKGKNLLVAVSAEGWFHLFDLTPAKVLDASGHHETLIGEEQRPVFKQHIPANTKVMLISDIDGDGCRELVVGYTDRVVRAFRWEELGEGPEHLTGQLVSLKKWMLEGHHDKPGITQGTGIAIVNK,not soluble
18,MGHHHHHHSHMSGRSVPHAHPATAEYEFANPSRLGEQRFGEGLLPEEILTPTLYHGYYVRPRAAPAGEGSRAGASELRLSEGKFQAFLDVSHFTPDEVTVRTVDNLLEVSARHPQRLDRHGFVSREFCRTYVLPADVDPWRVRAALSHDGILNLEAPRGGRHLDTEVNEVYISLLPAPPDPEEEEEAAIVEP,not soluble
19,MGHHHHHHSHMVPSREALLGPGTTAIRCPKKLQNQNYKGHGLSKGKEREQRASIRFKTTLMNTLMDVLRHRPGWVEVKDEGEWDFYWCDVSWLRENFDHTYMDEHVRISHFRNHYELTRKNYMVKNLKRFRKQLEREAGKLEAAKCDFFPKTFEMPCEYHLFVEEFRKNPGITWIMKPVARSQGKGIFLFRRLKDIVDWRKDTRSSDDQKDDIPVENYVAQRYIENPYLIGGRKFDLRVYVLVMSVFAECLLWSGHRRQDVHLTNVAVQKTSPDYHPKKGCKWTLQRFRQYLASKHGPEAVETLFRDIDNIFVKSLQSVQKVIISDKHCFELYGYDILIDQDLKPWLLEVNASPSLTASSQEDYELKTCLLEDTLHVVDMEARLTGREKRVGGFDLMWNDGPVSREEGAPDLSGMGNFVTNTHLGCVNDRKKQLRQLFCS,soluble
20,MGHHHHHHSHMWTPTEEEKYGVVICSFRGSVPQGLVLEIGETVQILEKCEGWYRGVSTKKPNVKGIFPANYIHLKKAIVSNRGQYETVVPLEDSIVTEVTATLQEWASLWKQLYVKHKVDLFYKLRHVMNELIDLRRQLLSGHLTQDQVREVKRHITVRLDWGNEHLGLDLVPRKDFEVVDSDQISVSDLYKMHL,not soluble
21,MGHHHHHHSHMWVDDFPLHRSACEGDSELLSRLLSERFSVNQLDSDHWAPIHYACWYGKVEATRILLEKGKCNPNLLNGQLSSPLHFAAGGGHAEIVQILLNHPETDRHITDQQGRSPLNICEENKQNNWEEAAKLLKEAINKPY,not soluble
22,MGHHHHHHSHMYSLNQEIKAFSRNNLRKQCTRVTTLTGKKIIETWKDARIHVVEEVEPSSGGGCGYVQDLSSDLQVGVIKPWLLLGSQDAAHDLDTLKKNKVTHILNVAYGVENAFLSDFTYKSISILDLPETNILSYFPECFEFIEEAKRKDGVVLVHCNAGVSRAAAIVIGFLMNSEQTSFTSAFSLVKNARPSICPNSGFMEQLRTYQEGKESNKCDRIQENSS,not soluble
23,MGHHHHHHSHNSARADVYPDGFKGHMLTKSEKNQLLAIASSLFVAFQLRAQHFQGNSRMPVIKPDIANWELSVKLHDKVHTVVASNNGSVFLVEVDGSKLNVTSTWNLFALIVCQR,not soluble
24,MGHHHHHHSHPRPEQHKSYKIRFNSISCSDPLVSSWRRKRKESSNTDSAGALGTLRFCVFGLGSRAYPHFCAFARAVDTRLEELGGERLLQLGQGDELCGQEEAFRGWAQAAFQAACETFCVGEDAKAAARDIFSPKRSWKRQRYRLSAQAEGLQLLPGLIHVHRRKMFQATIRSVENLQSSKSTRATILVRLDTGGQEGLQYQPGDHIGVCPPNRPGLV,not soluble
25,MGHHHHHHSHPSIPNPFPELCCSPFTSVLSADLFPKANSRKKQVIKVYSEDETSRALDVPSDITARDVCQLLILKNHYIDDHSWTLFEHLPHIGVERTIEDHELVIEVLSNWGIEEENKLYFRKNYAKYEFFKNP,soluble
26,MGHHHHHHSHQMVNQQQNKFDLRPLMEAVDTVKQKITLLENNDQRLAVLEEETNKHDTHINIHKAQLSKNEERFKLLEGTCYNGKLIWKVTDYKMKKREAVDGHTVSIFSQSFYTSRCGYRLCARAYLNGDGSGRGSHLSLYFVVMRGEFDSLLQWPFRQRVTLMLLDQSGKKNIMETFKPDPNSSSFKRPDGEMNIASGCPRFVAHSVLENAKNAYIKDDTLFLKVAVDLTDLEDL,not soluble
